The test concerns the target protective antigen (PA83, 83 kDa), monomeric (Bacillus anthracis). The test is described as follows: SPR. For orientation: Surface plasmon resonance follows binding to a sensor surface in real time, without labels.

Experimental findings from paper PMC2887854 are described below.

Sequence of protective antigen (PA83, 83 kDa), monomeric (Bacillus anthracis) (P13423 30-764 limits assumed): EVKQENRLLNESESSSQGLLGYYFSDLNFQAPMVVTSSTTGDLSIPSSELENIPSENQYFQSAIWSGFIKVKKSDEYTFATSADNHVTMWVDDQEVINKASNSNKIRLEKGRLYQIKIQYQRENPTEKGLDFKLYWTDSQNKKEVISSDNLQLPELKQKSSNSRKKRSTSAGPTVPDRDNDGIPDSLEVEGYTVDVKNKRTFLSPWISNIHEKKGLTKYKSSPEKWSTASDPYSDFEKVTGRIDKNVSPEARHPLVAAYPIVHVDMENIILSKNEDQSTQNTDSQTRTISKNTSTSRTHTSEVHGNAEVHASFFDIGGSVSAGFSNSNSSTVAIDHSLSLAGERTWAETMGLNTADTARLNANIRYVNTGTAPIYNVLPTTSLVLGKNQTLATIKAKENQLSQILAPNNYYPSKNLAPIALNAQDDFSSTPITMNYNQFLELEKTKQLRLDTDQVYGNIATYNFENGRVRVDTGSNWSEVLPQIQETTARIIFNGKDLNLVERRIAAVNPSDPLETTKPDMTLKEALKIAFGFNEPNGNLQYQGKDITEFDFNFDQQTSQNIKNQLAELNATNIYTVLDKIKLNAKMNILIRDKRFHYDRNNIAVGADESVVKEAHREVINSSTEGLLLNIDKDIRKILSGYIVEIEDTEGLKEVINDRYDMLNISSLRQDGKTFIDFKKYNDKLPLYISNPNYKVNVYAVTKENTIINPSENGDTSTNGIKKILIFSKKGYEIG

A word on the Kd: it is the constant that tells how readily two partners part at equilibrium. Low readings indicate higher affinity, high ones lower affinity. The term koff denotes the rate constant with which the complex falls apart. A low value points to a long-lived complex. The kon is the second-order rate constant of association. The low end stands for slow association, the high end for fast association. The substance “CMG2-R40 vWA domain (residues 40-217) (from UniProt P58335 40-217) (domain or fragment)” displayed a Kd of 2.43 nM, a koff of 0.000105 s⁻¹ and a kon of 45300 M⁻¹ s⁻¹.
